Results taken from the supplement of paper PMC5998384.

Legend:
HeLa Kyoto [1] = experiment: solubility in G1/S (NP-40 vs SDS abundance) (log2 ratio); higher = more soluble; conditions: cell cycle stage: G1/S
HeLa Kyoto [2] = experiment: melting temperature (median over replicates), in situ; higher = more thermally stable
HeLa Kyoto [3] = experiment: solubility change mitosis vs G1/S (difference of NP-40 vs SDS log2 ratios) (log2 ratio difference); higher = more soluble in mitosis
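For melting temperature (median over replicates), in situ in this document: HeLa Kyoto cells synchronized by double thymidine or nocodazole block, proteins quantified by TMT10plex mass spectrometry, three independent biological replicates.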
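For solubility change mitosis vs G1/S (difference of NP-40 vs SDS log2 ratios) in this document: synchronized HeLa Kyoto cells (double thymidine block for G1/S, nocodazole release for mitosis), protein amounts in NP-40 versus SDS lysates quantified by mass spectrometry, three biological replicates.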
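For solubility in G1/S (NP-40 vs SDS abundance) in this document: HeLa Kyoto cells arrested at G1/S by double thymidine block, proteins quantified by TMT10plex mass spectrometry in mild NP-40 versus SDS extracts, three biological replicates.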

Row | Sequence | solubility in G1/S (log2) (HeLa Kyoto [1]) | melting temperature (HeLa Kyoto [2]; cell cycle stage: G1/S) [°C] | melting temperature (HeLa Kyoto [2]; cell cycle stage: mitosis) [°C] | solubility change mitosis (log2) (HeLa Kyoto [3])
1 | MELFQAKDHYILQQGERALWCSRRDGGLQLRPATDLLLAWNPICLGLVEGVIGKIQLHSDLPWWLILIRQKALVGKLPGDHEVCKVTKIAVLSLSEMEPQDLELELCKKHHFGINKPEKIIPSPDDSKFLLKTFTHIKSNVSAPNKKKVKESKEKEKLERRLLEELLKMFMDSESFYYSLTYDLTNSVQRQSTGERDGRPLWQKVDDRFFWNKYMIQDLTEIGTPDVDFWIIPMIQGFVQIEELVVNYTESSDDEKSSPETPPQESTCVDDIHPRFLVALISRRSRHRAGMRYKRRGVDKNGNVANYVETEQLIHVHNHTLSFVQTRGSVPVFWSQVGYRYNPRPRLDRSEKETVAYFCAHFEEQLNIYKKQVIINLVDQAGREKIIGDAYLKQVLLFNNSHLTYVSFDFHEHCRGMKFENVQTLTDAIYDIILDMKWCWVDEAGVICKQEGIFRVNCMDCLDRTNVVQAAIARVVMEQQLKKLGVMPPEQPLPVKCNRIYQIMWANNGDSISRQYAGTAALKGDFTRTGERKLAGVMKDGVNSANRYYLNRFKDAYRQAVIDLMQGIPVTEDLYSIFTKEKEHEALHKENQRSHQELISQLLQSYMKLLLPDDEKFHGGWALIDCDPSLIDATHRDVDVLLLLSNSAYYVAYYDDEVDKVNQYQRLSLENLEKIEIGPEPTLFGKPKFSCMRLHYRYKEASGYFHTLRAVMRNPEEDGKDTLQCIAEMLQITKQAMGSDLPIIEKKLERKSSKPHEDIIGIRSQNQGSLAQGKNFLMSKFSSLNQKVKQTKSNVNIGNLRKLGNFTKPEMKVNFLKPNLKVNLWKSDSSLETMENTGVMDKVQAESDGDMSSDNDSYHSDEFLTNSKSDEDRQLANSLESVGPIDYVLPSCGIIASAPRLGSRSQSLSSTDSSVHAPSEITVAHGSGLGKGQESPLKKSPSAGDVHILTGFAKPMDIYCHRFVQDAQNKVTHLSETRSVSQQASQERNQMTNQVSNETQSESTEQTPSRPSQLDVSLSATGPQFLSVEPAHSVASQKTPTSASSMLELETGLHVTPSPSESSSSRAVSPFAKIRSSMVQVASITQAGLTHGINFAVSKVQKSPPEPEIINQVQQNELKKMFIQCQTRIIQI [INPP5F] | -0.015 | 51.3 | 49.3 | -0.171
2 | MENFRKVRSEEAPAGCGAEGGGPGSGPFADLAPGAVHMRVKEGSKIRNLMAFATASMAQPATRAIVFSGCGRATTKTVTCAEILKRRLAGLHQVTRLRYRSVREVWQSLPPGPTQGQTPGEPAASLSVLKNVPGLAILLSKDALDPRQPGYQPPNPHPGPSSPPAAPASKRSLGEPAAGEGSAKRSQPEPGVADEDQTA [RPP25] | 0.179 | 54.5 | 53.7 | 0.258
3 | MEPAGPCGFCPAGEVQPARYTCPRCNAPYCSLRCYRTHGTCAENFYRDQVLGELRGCSAPPSRLASALRRLRQQRETEDEPGEAGLSSGPAPGGLSGLWERLAPGEKAAFERLLSRGEAGRLLPPWRPWWWNRGAGPQLLEELDNAPGSDAAELELAPARTPPDSVKDASAAEPAAAERVLGDVPGACTPVVPTRIPAIVSLSRGPVSPLVRFQLPNVLFAYAHTLALYHGGDDALLSDFCATLLGVSGALGAQQVFASAEEALQAAAHVLEAGEHPPGPLGTRGAMHEVARILLGEGPTNQKGYTLAALGDLAQTLGRARKQAVAREERDHLYRARKKCQFLLAWTNENEAALTPLALDCARAHQAHAVVAEEVAALTGELERLWGGPVPPAPRTLIEELPS [ZNHIT2] | 0.384 | 48.9 | 49.4 | 0.141
4 | MERFVVTAPPARNRSKTALYVTPLDRVTEFGGELHEDGGKLFCTSCNVVLNHVRKSAISDHLKSKTHTKRKAEFEEQNVRKKQRPLTASLQCNSTAQTEKVSVIQDFVKMCLEANIPLEKADHPAVRAFLSRHVKNGGSIPKSDQLRRAYLPDGYENENQLLNSQDC [CGGBP1] | 0.332 | 51.7 | 51.8 | 0.0407
5 | MFPLTEENKHVAQLLLNTGTCPRCIFRFCGVDFHAPYKLPYKELLNELQKFLETEKDELILEVMNPPPKKIRLQELEDSIDNLSQNGEGRISVSHVGSTASKNSNLNVCNVCLGILQEFCEKDFIKKVCQKVEASGFEFTSLVFSVSFPPQLSVREHAAWLLVKQEMGKQSLSLGRDDIVQLKEAYKWITHPLFSEELGVPIDGKSLFEVSVVFAHPETVEDCHFLAAICPDCFKPAKNKQSVFTRMAVMKALNKIKEEDFLKQFPCPPNSPKAVCAVLEIECAHGAVFVAGRYNKYSRNLPQTPWIIDGERKLESSVEELISDHLLAVFKAESFNFSSSGREDVDVRTLGNGRPFAIELVNPHRVHFTSQEIKELQQKINNSSNKIQVRDLQLVTREAIGHMKEGEEEKTKTYSALIWTNKAIQKKDIEFLNDIKDLKIDQKTPLRVLHRRPLAVRARVIHFMETQYVDEHHFRLHLKTQAGTYIKEFVHGDFGRTKPNIGSLMNVTADILELDVESVDVDWPPALDD [PUS10] | 0.0782 | 50.8 | 51.8 | -0.271
6 | MGEEANDDKKPTTKFELERETELRFEVEASQSVQLELLTGMAEIFGTELTRNKKFTFDAGAKVAVFTWHGCSVQLSGRTEVAYVSKDTPMLLYLNTHTALEQMRRQAEKEEERGPRVMVVGPTDVGKSTVCRLLLNYAVRLGRRPTYVELDVGQGSVSIPGTMGALYIERPADVEEGFSIQAPLVYHFGSTTPGTNIKLYNKITSRLADVFNQRCEVNRRASVSGCVINTCGWVKGSGYQALVHAASAFEVDVVVVLDQERLYNELKRDLPHFVRTVLLPKSGGVVERSKDFRRECRDERIREYFYGFRGCFYPHAFNVKFSDVKIYKVGAPTIPDSCLPLGMSQEDNQLKLVPVTPGRDMVHHLLSVSTAEGTEENLSETSVAGFIVVTSVDLEHQVFTVLSPAPRPLPKNFLLIMDIRFMDLK [CLP1] | -0.181 | 46.9 | 48.8 | -0.0019
7 | MGEIEGTYRVLQTAGMRLGAQTPVGVSTLEPGQTLLPRMQEKHLHLRVKLLDNTMEIFDIEPKCDGQVLLTQVWKRLNLVECDYFGMEFQNTQSYWIWLEPMKPIIRQIRRPKNVVLRLAVKFFPPDPGQLQEEYTRYLFALQLKRDLLEERLTCADTTAALLTSHLLQSEIGDYDETLDREHLKVNEYLPGQQHCLEKILEFHQKHVGQTPAESDFQVLEIARKLEMYGIRFHMASDREGTKIQLAVSHMGVLVFQGTTKINTFNWSKVRKLSFKRKRFLIKLHPEVHGPYQDTLEFLLGSRDECKNFWKICVEYHTFFRLLDQPKPKAKAVFFSRGSSFRYSGRTQKQLVDYFKDSGMKRIPYERRHSKTHTSVRALTADLPKQSISFPEGLRTPASPSSANAFYSLSPSTLVPSGLPEFKDSSSSLTDPQVSYVKSPAAERRSGAVAGGPDTPSAQPLGPPALQPGPGLSTKSPQPSPSSRKSPLSLSPAFQVPLGPAEQGSSPLLSPVLSDAGGAGMDCEEPRHKRVPADEAYFIVKEILATERTYLKDLEVITVWFRSAVVKEDAMPATLMTLLFSNIDPIYEFHRGFLREVEQRLALWEGPSKAHTKGSHQRIGDILLRNMRQLKEFTSYFQRHDEVLTELEKATKRCKKLEAVYKEFELQKVCYLPLNTFLLKPIQRLLHYRLLLRRLCGHYSPGHHDYADCHDALKAITEVTTTLQHILIRLENLQKLTELQRDLVGIENLIAPGREFIREGCLHKLTKKGLQQRMFFLFSDMLLYTSKGVAGTSHFRIRGLLPLQGMLVEESDNEWSVPHCFTIYAAQKTIVVAASTRLEKEKWMLDLNSAIQAAKSGGDTAPALPGRTVCTRPPRSPNEVSLEQESEDDARGVRSSLEGHGQHRANTTMHVCWYRNTSVSRADHSAAVENQLSGYLLRKFKNSHGWQKLWVVFTNFCLFFYKTHQDDYPLASLPLLGYSVSIPREADGIHKDYVFKLQFKSHVYFFRAESKYTFERWMEVIQGASSSAGRAPSIVQDGPQPSSGLEGMVRGKEE [FARP2] | -0.166 | – | 50 | -0.0474
8 | MGGLFWRSALRGLRCGPRAPGPSLLVRHGSGGPSWTRERTLVAVKPDGVQRRLVGDVIQRFERRGFTLVGMKMLQAPESVLAEHYQDLRRKPFYPALIRYMSSGPVVAMVWEGYNVVRASRAMIGHTDSAEAAPGTIRGDFSVHISRNVIHASDSVEGAQREIQLWFQSSELVSWADGGQHSSIHPA [NME4] | 0.0944 | 54.9 | 54.5 | -0.189
